Data published in the supplement of paper PMC12042874.
± gives the uncertainty stated by the source.

Test: amyloid nucleation score (Sup35N fusion, yeast selection) (log enrichment); library NNK1; higher = more nucleation; inactive = no reads after selection
How it was run: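 Yeast lacking psi expressed peptides of 20 random codons fused to Sup35N, received 100 μM copper sulfate for 24 hours, and were then grown for 7 days at 30°C on medium lacking adenine and uracil. Illumina sequencing of input and output plasmid inserts provided the reads. Nucleation scores are DiMSum log enrichments of output over input, centred on the mode of non-aggregating sequences. Any sequence with under 100 input reads was excluded.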

Row | Substance | amyloid nucleation score
1 | GKQGRIQDSVYDWCCCNLSG | 0.255 ± 1.2
2 | YSPDLSRASFCFLWYISSS | inactive
3 | RRTWNWPTWIMRSRRREGHG | 0.368 ± 0.42
4 | GYRSIGASGTQDLSQVVLNK | 0.901 ± 0.98
5 | DDLACRSQ | 0.614 ± 0.27
6 | SHTHEHKFSSSRCGELNSEK | -0.902 ± 0.38
7 | RGWGELVVVNHLLRRGGGEG | -0.029 ± 0.69
8 | LYRSGSPRTGWKLMSSSARR | 7.525 ± 0.07
9 | EDMWNFDRSHGLWYEGTSAM | 0.72 ± 0.69
10 | AGLRIYVVSFILTYGKRFSS | 0.12 ± 0.4
11 | MSTVFADLR | -0.292 ± 0.29
12 | YTLFWNVEGNLWQTPSVCNL | 0.141 ± 0.95
13 | KITHLFFKSSYVIVKLLYVI | 0.082 ± 0.51
14 | TFYGY | -0.487 ± 1.4
15 | GYNFKRVSNFSVYGLVSYSN | 0.046 ± 1.6
16 | HMLWNNVRIF | 0.09 ± 0.6
17 | LSWSILDGFGGMRCCNINAL | 7.155 ± 0.058
18 | LKLLINGY | -0.333 ± 0.59
19 | YVHLYDDCTIGSTRAEGRGY | 0.777 ± 1.2
20 | YYFSVYQFCGGVFGSRDCLE | 6.711 ± 0.05
21 | IATFGVTMSNSWT | 2.84 ± 0.13
22 | VCFWSGEGNLGAWDGHELSM | 0.693 ± 0.46
23 | IGAGL | -1.07 ± 2.4
24 | FFFIQTSPLHAQYAISLVLR | -0.057 ± 0.52
25 | VYIVCYFLHTGSFGWTCCVE | inactive

Row | Substance | amyloid nucleation score
26 | SESTYYDIQLPVHMLVDMSE | 0.257 ± 0.24
27 | TLLWGTLSAGHS | inactive
28 | TGCRGSVMSFDMLFSYILYL | 0.205 ± 0.26
29 | GLCVMSYTVDSLLCKGIFR | inactive
30 | YCGGRKG | 0.144 ± 0.34
31 | VVWYLMVFWPCDSLSPMSRS | 0.559 ± 0.4
32 | VQRCWYGR | -1.94 ± 2.7
33 | LVRLTCDMNNFKCQLMFQIF | 1.17 ± 0.38
34 | CVLFESQ | -0.188 ± 0.44
35 | LGYAYSEPPWRLMVNWSPSA | 1.66 ± 0.16
36 | YIRNTLTPEMVNWRDLRVPR | -0.152 ± 0.73
37 | MGIWSFDTVTRGAMTSVGDA | 0.252 ± 0.62
38 | ITFERGYCTKNITFATTTCP | 1.23 ± 0.47
39 | NNANCMCSNTCHVFWANHAR | 6.193 ± 0.061
40 | VLEYKD | -1.97 ± 2.4
41 | YWRCCQVCRLRMDPQYFPDG | -0.358 ± 0.69
42 | SDGCYALIWFGREQ | -1.24 ± 1.1
43 | FLSEE | -0.584 ± 0.44
44 | NVFILMCITKRFCNWLNISS | -0.773 ± 1.5
45 | VSLLKGRVAMSRG | 1.1 ± 0.38
46 | MVGRVARRVTMSVCSAVSGV | -0.237 ± 0.45
47 | VFVSKNWGTCRHGRDSCC | 0.507 ± 0.26
48 | SFGVTFHWN | 2.36 ± 0.28
49 | CFYMVSFEFR | 1.12 ± 0.34
50 | SSFRKTLLMVIYARNEGCMS | 0.471 ± 0.97

Row | Substance | amyloid nucleation score
51 | LGTGCA | -0.507 ± 0.83
52 | FRKLKTAYDFFHCRCPHSNA | 0.373 ± 0.78
53 | CYNNF | inactive
54 | SVGDIFSMWSVCSSVNDRCK | 0.415 ± 0.21
55 | SLPLTVVLYCHRYG | 5.05 ± 0.064
56 | ECDRCYSYGCVDHKAALG | 0.629 ± 0.72
57 | SPGFYLHGYQQNQHP | 0.653 ± 0.68
58 | LKSWVLYYFM | 1.03 ± 0.35
59 | YYYVWNFGGWIGFRNVVSIR | 0.05 ± 0.98
60 | GARQHATVAREAATLCF | 0.094 ± 1.4
61 | FRTHD | 0.351 ± 0.97
62 | DLLFAVYYELEHGFERVAGR | 4.78 ± 0.081
63 | FTCSTYNCWGVHS | 1.26 ± 0.37
64 | VLFGS | -0.462 ± 0.93
65 | HGPHYLLITGRGTRDNQSRD | -0.721 ± 0.65
66 | HESLWKFESSFADKNRTVWN | 1.32 ± 0.45
67 | RLLSPLY | -0.773 ± 2.1
68 | SYSFAWGS | 1.82 ± 0.45
69 | FFFYKPMNVEAIRDLHWPYS | 6.229 ± 0.06
70 | CSAYDQVWDTNGRVCFA | -0.003 ± 0.41
71 | SRVLSCEGWLK | -0.051 ± 0.9
72 | VFNMTYRKIRVTE | inactive
73 | MIMDVVKGFVFRSSINSKRY | 3.27 ± 0.088
74 | ARVTVNGFLWCYNLGIRLDF | -0.779 ± 1.6
75 | TAMRSHLSVPSNVTLPCIKH | 0.082 ± 0.46

Row | Substance | amyloid nucleation score
76 | RSYGLAFGYFHNHVRSFARV | -0.735 ± 0.81
77 | SYSEYPHVEYLLLFSMTQWN | 0.43 ± 0.34
78 | RSTKKFSPQDTPHSLHVKKG | 0.574 ± 0.42
79 | SLCILDEQVDHFVAEGVGID | 0.876 ± 0.42
80 | YEFMWRVNTLWRENLFYSGR | 0.156 ± 0.59
81 | ISVHIFKGLYRSKSVAWRNV | -0.069 ± 1.1
82 | AYIKNQ | -0.305 ± 0.47
83 | KILCMSCFTNSYHARWTFIL | 5.694 ± 0.051
84 | LLQVWYFFR | 0.296 ± 0.66
85 | MYTSDHNSGVASMCIVVGFF | 3.76 ± 0.08
86 | LYRSGSVMSSATHYRGAHLC | -0.556 ± 0.77
87 | CLSRHLKNGPRMA | 0.495 ± 1
88 | ERVAQKILHLKSMPITARPV | 0.002 ± 1.1
89 | RWSYA | 0.981 ± 0.58
90 | VSNFIGVFVAVSWRYDDLCF | 0.324 ± 1.2
91 | YLDVLGAFC | -0.214 ± 0.47
92 | IFVFWTALSTSHNGWGVPVM | inactive
93 | GCIGAQRLNCLWSTRRYLVY | 5.42 ± 0.06
94 | SSMVVVGRRNLSDWKEYYPM | -0.283 ± 0.45
95 | CKTCFTLRKIF | -0.461 ± 0.38
96 | RTVPTRWACVLVSGVWRYGA | 0.504 ± 0.46
97 | IPRYVYIGLTPKAVLKQNLA | -1.04 ± 0.84
98 | RITHWSGKLAFQTIVTISYL | 1.53 ± 0.41
99 | ILGVSMPPFYSV | -0.532 ± 0.84
100 | NWLTTQNI | -0.371 ± 0.42

Row | Substance | amyloid nucleation score
101 | VMPYYRRSQNHDSFNFGDVS | 0.552 ± 0.52
102 | KLFESYVLSRGMVPETVKAV | 0.226 ± 0.78
103 | VSALAVRARWAINTLARDRR | 0.9 ± 0.66
104 | LCDFKTSEVPSEGTFWSVLA | 0.181 ± 0.51
105 | GSLFYVRLLYRGCNTEITSK | 0.925 ± 1.1
106 | AFDWSMSAKDQINEQTLNSV | 0.617 ± 0.28
107 | VLTKWGIWGGQWCTVLSRGR | 0.211 ± 0.37
108 | LRCTCVECQWKRCESTLGGG | -1.02 ± 2.7
109 | RLNRVSVLLFPTFDLPPFLE | 2.68 ± 0.098
110 | LKEFISCGPGCINWLHGKDW | -0.519 ± 0.37
111 | YGTRVFIGSIRYFRTEEAKI | 0.35 ± 0.72
112 | CFFFPPEYTKRLKSSSMVRR | -0.652 ± 0.9
113 | VGVVCLKFLP | -0.064 ± 0.43
114 | QHHLIGMVRSIGEKMLAKNQ | 0.094 ± 0.34
115 | CCIVSGFALSSTTRMNVR | 1.77 ± 0.15
116 | GMSDRQWYMTRTYCLSGPAV | 0.134 ± 0.23
117 | TDSSKGRGARRGGSNSSHSW | -0.419 ± 0.61
118 | IFSRSEEFVFFGHINSV | 1.68 ± 0.32
119 | LGECFTGTDRLLEGLVSCES | 0.776 ± 0.88
120 | GLDLMSVRWGKTMAPSSLWW | 4.63 ± 0.12
121 | VIGDLSYRSYI | 0.44 ± 0.4
122 | SPESRRQWCL | inactive
123 | GVWDGKRSYGSLQSWAFVPE | -0.138 ± 0.41
124 | NFRSFYKQF | -0.451 ± 1.4
125 | YVVNYYNRQSIGCFVWTWRR | 8.169 ± 0.05

Row | Substance | amyloid nucleation score
126 | GGRNF | -0.696 ± 0.57
127 | PMLFGVGRSFE | -0.377 ± 0.27
128 | PLFLQCLWKNSLDLGMKDLS | -0.327 ± 1.4
129 | MHTEFFGGMAHTTLWDVMSP | -0.977 ± 0.77
130 | SISRGWFMWEDNRISRFLLI | 0.266 ± 0.37
131 | YHNCDKDAANLFYCQ | 2.01 ± 0.47
132 | NTNLVWR | 0.267 ± 0.36
133 | MACKIIYVTVEGMLRSRS | 1.31 ± 0.56
134 | INQLRITWLD | 2.46 ± 0.12
135 | TFKRYI | 1.28 ± 0.56
136 | YNLDSLLIWWVIDC | -0.22 ± 1.1
137 | DIFYLCFRVYSEVGLSINVV | -0.529 ± 0.84
138 | DPTTLYIEV | 1.29 ± 0.39
139 | CGLERTCRRGPSELTCTLYE | -0.201 ± 0.56
140 | QRISWDFSWCRASWMPNLR | 0.062 ± 0.34
141 | PCRGL | -0.628 ± 2.1
142 | DRVWCHETKRSFYIMCKNNI | 0.052 ± 0.24
143 | ALVTWWSYHSLMVSGCKVRS | -0.299 ± 0.59
144 | NNCLWLLGPRFPCVIMLVPA | 2.18 ± 0.14
145 | MFLCNVIYCFFLTYIWLTFF | 5.33 ± 0.11
146 | QFWHYGF | -1.04 ± 2.4
147 | FSKLWSVWLRLCLKG | 0.334 ± 0.52
148 | SITSSYKYGKVSWSMSLGVG | -1.07 ± 0.46
149 | VCVLSGRK | -0.416 ± 0.38
150 | FRTATWNKIGAQDRVKSISV | -1.06 ± 2.7

Row | Substance | amyloid nucleation score
151 | SACFYTATVFFMYNSFGSNV | 5.611 ± 0.055
152 | SGCSRRCWLGSRPGSWGACC | 0.698 ± 0.45
153 | FTSPLKNHHLFGFAS | -0.345 ± 0.6
154 | SHTAVFSRAAIEMCCRDWRA | 0.537 ± 0.47
155 | LQWEVSSLNVLRFPRNMERC | 0.289 ± 0.4
156 | PGGYM | 0.597 ± 0.52
157 | NSCICLTRD | -1.27 ± 1.7
158 | NNLLLSYSSFYMLMFQ | 3.42 ± 0.076
159 | LVMYDSL | 0.489 ± 0.58
160 | SWRFDCYDRTWYNMYLEHLS | 0.232 ± 0.23
161 | FQCVFH | 3.88 ± 0.062
162 | VVDSTFWEVIHRRWASAMLD | -0.657 ± 0.68
163 | GGSFKGYSLIV | 0.678 ± 0.66
164 | KSPRFASTYPLSSSYSLRVI | -0.327 ± 0.28
165 | AYNIVDRSYLGSCKPESFVG | 0.469 ± 0.44
166 | DFASVEFWLIALPSQMCWFF | 0.056 ± 0.76
167 | STNLLDFVGKSYVNWKKFRT | 0.104 ± 0.42
168 | GYHDGISMFSCVYSCYQSVS | 5.92 ± 0.061
169 | LYIAH | -0.722 ± 0.42
170 | FASVTTIFFPSPLFFDIRWD | 1.09 ± 0.79
171 | TFQNVLLLGSLVWNNNKS | 0.24 ± 0.55
172 | TFHAHTLWQGAQVIRQSETR | 0.053 ± 0.47
173 | EVVQMVFIFFRCSLVDGKEW | 0.405 ± 0.72
174 | SAWCRSIM | 0.952 ± 0.27
175 | WVWLHDKASLNLL | 0.007 ± 0.72
